For 15 molecules, Kd, koff and kon results are on record in US20250179200A1 (UNIVERSITY OF CHICAGO, published 2025).

The labels stand for the following.
T1: Human GHR-Fc-10x His (extracellular region of human growth hormone receptor fused to human Fc) (human, UniProt P10912 50-256)
T1 construct: Captured by its 10x His-tag on a Ni-NTA sensor chip for SPR; not shown: human Fc domain of vector pAB1200 with its linker; 10x His-tag replacing the AviTag
T1 sequence (looked up): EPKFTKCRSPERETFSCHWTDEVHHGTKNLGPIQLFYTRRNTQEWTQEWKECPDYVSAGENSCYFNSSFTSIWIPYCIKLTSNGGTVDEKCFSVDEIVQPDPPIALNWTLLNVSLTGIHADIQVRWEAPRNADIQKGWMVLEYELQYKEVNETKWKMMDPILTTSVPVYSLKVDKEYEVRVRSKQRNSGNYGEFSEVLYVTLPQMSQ

B1: GHR1 Fab (Fab, V domains shown)
VH: EVQLVESGGGLVQPGGSLRLSCAASGFNVSYSSIHWVRQAPGKGLEWVAYIYSSYGSTYYADSVKGRFTISADTSKNTAYLQMNSLRAEDTAVYYCAREYWPYYSQTGGSAMDYWGQGTLVTVSS
VL: DIQMTQSPSSLSASVGDRVTITCRASQSVSSAVAWYQQKPGKAPKLLIYSASSLYSGVPSRFSGSRSGTDFTLTISSLQPEDFATYYCQQSMHPLITFGQGTKVEIKR
notes: Synthetic human Fab from phage display, expressed in E. coli
B2: GHR7 Fab (Fab, V domains shown)
VH: EVQLVESGGGLVQPGGSLRLSCAASGFNFSYSSIHWVRQAPGKGLEWVAYISSYYGYTSYADSVKGRFTISADTSKNTAYLQMNSLRAEDTAVYYCARLQHPSWYYYQGYHSGMDYWGQGTLVTVSS
VL: DIQMTQSPSSLSASVGDRVTITCRASQSVSSAVAWYQQKPGKAPKLLIYSASSLYSGVPSRFSGSRSGTDFTLTISSLQPEDFATYYCQQYWSSLITFGQGTKVEIKR
notes: Fab
B3: GHR12 Fab (Fab, V domains shown)
VH: EVQLVESGGGLVQPGGSLRLSCAASGFNVSYYSIHWVRQAPGKGLEWVASIYSSYGSTYYADSVKGRFTISADTSKNTAYLQMNSLRAEDTAVYYCARGYWQGGYYRWGNGGLDYWGQGTLVTVSS
VL: DIQMTQSPSSLSASVGDRVTITCRASQSVSSAVAWYQQKPGKAPKLLIYSASSLYSGVPSRFSGSRSGTDFTLTISSLQPEDFATYYCQQSYGWLITFGQGTKVEIKR
notes: Fab
B4: GHR4 Fab (Fab, V domains shown)
VH: EVQLVESGGGLVQPGGSLRLSCAASGFNVYYSYIHWVRQAPGKGLEWVAYISPYSGSTSYADSVKGRFTISADTSKNTAYLQMNSLRAEDTAVYYCARQEWYAFDYWGQGTLVTVSS
VL: DIQMTQSPSSLSASVGDRVTITCRASQSVSSAVAWYQQKPGKAPKLLIYSASSLYSGVPSRFSGSRSGTDFTLTISSLQPEDFATYYCQQYWSYLITFGQGTKVEIKR
notes: Fab; also called FAB4
B5: GHR13 Fab (Fab, V domains shown)
VH: EVQLVESGGGLVQPGGSLRLSCAASGFNVYYSSIHWVRQAPGKGLEWVAYIYPSSGSTSYADSVKGRFTISADTSKNTAYLQMNSLRAEDTAVYYCARSWQWYYPGWEQYGWYGMDYWGQGTLVTVSS
VL: DIQMTQSPSSLSASVGDRVTITCRASQSVSSAVAWYQQKPGKAPKLLIYSASSLYSGVPSRFSGSRSGTDFTLTISSLQPEDFATYYCQQSGGSLVTFGQGTKVEIKR
notes: Fab
B6: GHR3 Fab (Fab, V domains shown)
VH: EVQLVESGGGLVQPGGSLRLSCAASGFNVSYYSIHWVRQAPGKGLEWVAYISPSYGSTSYADSVKGRFTISADTSKNTAYLQMNSLRAEDTAVYYCARGYWGGGYWPYHAFDYWGQGTLVTVSS
VL: DIQMTQSPSSLSASVGDRVTITCRASQSVSSAVAWYQQKPGKAPKLLIYSASSLYSGVPSRFSGSRSGTDFTLTISSLQPEDFATYYCQQYYTSLLTFGQGTKVEIKR
notes: Fab
B7: GHR8 Fab (Fab, V domains shown)
VH: EVQLVESGGGLVQPGGSLRLSCAASGFNISYSSIHWVRQAPGKGLEWVASIYSSYGSTYYADSVKGRFTISADTSKNTAYLQMNSLRAEDTAVYYCARSYIYSQPGFYYDSYALDYWGQGTLVTVSS
VL: DIQMTQSPSSLSASVGDRVTITCRASQSVSSAVAWYQQKPGKAPKLLIYSASSLYSGVPSRFSGSRSGTDFTLTISSLQPEDFATYYCQQYGSWLITFGQGTKVEIKR
notes: Fab
B8: GHR11 Fab (Fab, V domains shown)
VH: EVQLVESGGGLVQPGGSLRLSCAASGFNLSYYYIHWVRQAPGKGLEWVASIYSSSGYTYYADSVKGRFTISADTSKNTAYLQMNSLRAEDTAVYYCARQYPYSWSSYGFSSGALDYWGQGTLVTVSS
VL: DIQMTQSPSSLSASVGDRVTITCRASQSVSSAVAWYQQKPGKAPKLLIYSASSLYSGVPSRFSGSRSGTDFTLTISSLQPEDFATYYCQQYFAYYSPITFGQGTKVEIKR
notes: Fab
B9: GHR2 Fab (Fab, V domains shown)
VH: EVQLVESGGGLVQPGGSLRLSCAASGFNLYYSSIHWVRQAPGKGLEWVAYISPSYGSTSYADSVKGRFTISADTSKNTAYLQMNSLRAEDTAVYYCARYYDYSWPWYWHGGGPAFDYWGQGTLVTVSS
VL: DIQMTQSPSSLSASVGDRVTITCRASQSVSSAVAWYQQKPGKAPKLLIYSASSLYSGVPSRFSGSRSGTDFTLTISSLQPEDFATYYCQQYEEYPLITFGQGTKVEIKR
notes: Fab
B10: GHR5 Fab (Fab, V domains shown)
VH: EVQLVESGGGLVQPGGSLRLSCAASGFNVSYYSIHWVRQAPGKGLEWVAYISPSSGSTSYADSVKGRFTISADTSKNTAYLQMNSLRAEDTAVYYCARMYWQGGYSSYWQSYAMDYWGQGTLVTVSS
VL: DIQMTQSPSSLSASVGDRVTITCRASQSVSSAVAWYQQKPGKAPKLLIYSASSLYSGVPSRFSGSRSGTDFTLTISSLQPEDFATYYCQQKSQYSLVTFGQGTKVEIKR
notes: Fab
B11: GHR15 Fab (Fab, V domains shown)
VH: EVQLVESGGGLVQPGGSLRLSCAASGFNVSSSSIHWVRQAPGKGLEWVASIYSYYGYTSYADSVKGRFTISADTSKNTAYLQMNSLRAEDTAVYYCARSSGYHGWYWNGMDYWGQGTLVTVSS
VL: DIQMTQSPSSLSASVGDRVTITCRASQSVSSAVAWYQQKPGKAPKLLIYSASSLYSGVPSRFSGSRSGTDFTLTISSLQPEDFATYYCQQWYGMSLVTFGQGTKVEIKR
notes: Fab
B12: GHR14 Fab (Fab, V domains shown)
VH: EVQLVESGGGLVQPGGSLRLSCAASGFNISSSYIHWVRQAPGKGLEWVASISSYYGYTSYADSVKGRFTISADTSKNTAYLQMNSLRAEDTAVYYCARSYGSYYGYYHYWEWYGLDYWGQGTLVTVSS
VL: DIQMTQSPSSLSASVGDRVTITCRASQSVSSAVAWYQQKPGKAPKLLIYSASSLYSGVPSRFSGSRSGTDFTLTISSLQPEDFATYYCQQWQYWSPVTFGQGTKVEIKR
notes: Fab
B13: GHR10 Fab (Fab, V domains shown)
VH: EVQLVESGGGLVQPGGSLRLSCAASGFNFSYYSIHWVRQAPGKGLEWVASISSYYGSTSYADSVKGRFTISADTSKNTAYLQMNSLRAEDTAVYYCARTEYSFGMYWAHTGMDYWGQGTLVTVSS
VL: DIQMTQSPSSLSASVGDRVTITCRASQSVSSAVAWYQQKPGKAPKLLIYSASSLYSGVPSRFSGSRSGTDFTLTISSLQPEDFATYYCQQFWSSEPITFGQGTKVEIKR
notes: Fab
B14: GHR9 Fab (Fab, V domains shown)
VH: EVQLVESGGGLVQPGGSLRLSCAASGFNVSYSSIHWVRQAPGKGLEWVASISSSYGSTYYADSVKGRFTISADTSKNTAYLQMNSLRAEDTAVYYCARYYDYSWSTYKGIGTGAIDYWGQGTLVTVSS
VL: DIQMTQSPSSLSASVGDRVTITCRASQSVSSAVAWYQQKPGKAPKLLIYSASSLYSGVPSRFSGSRSGTDFTLTISSLQPEDFATYYCQQYWYSYLITFGQGTKVEIKR
notes: Fab
B15: GHR6 Fab (Fab, V domains shown)
VH: EVQLVESGGGLVQPGGSLRLSCAASGFNVYYSSIHWVRQAPGKGLEWVASIYSSYGYTSYADSVKGRFTISADTSKNTAYLQMNSLRAEDTAVYYCARGQWSGLSGYWEYKALDYWGQGTLVTVSS
VL: DIQMTQSPSSLSASVGDRVTITCRASQSVSSAVAWYQQKPGKAPKLLIYSASSLYSGVPSRFSGSRSGTDFTLTISSLQPEDFATYYCQQVGGSSLITFGQGTKVEIKR
notes: Fab

This assay concerns the target T1, Human GHR-Fc-10x His (extracellular …). As to the kind of experiment: SPR, GHR-Fc-10xHis captured on Ni-NTA chip, Fab as analyte, 1:1 fit. As for the experimental part:
Surface plasmon resonance (SPR) measurements were conducted in a MASS-1 (Bruker) instrument. The target GHR-Fc (50 nM) with a 10× His-tag was captured in a Ni-NTA sensor chip. […] Flow rate was 30 ul/min and temperature 20° C. Sensograms were corrected through double referencing and fitting was done with a 1:1 binding model using the Sierra Analyzer (Bruker). For epitope binning experiments, the first FAB was injected at saturating concentrations (200 nM), followed by injection a second FAB in equal molar mixture with the first FAB, and the response unit (RU) was recorded.
Target GHR_Fc (from different species) were immobilized via a 10× His-tag to a Ni-NTA sensor chip. […] Sensograms were corrected through double referencing and 1:1 binding model fit was done using Sierra Analyzer (Bruker). To reveal different epitopes on GHR, the epitope binning experiment was performed.
One may read the Kd as a measure of binding affinity in units of concentration. Low values mean higher affinity, high ones lower affinity. As a reminder, the koff is a measure of how fast the partners let go of each other. Read a high koff as a short-lived complex. Broadly, the kon is the rate constant with which the complex forms. The molecule B1 came in with a Kd of 6.29 nM, a koff of 0.000336 s⁻¹ and a kon of 53400 M⁻¹ s⁻¹.
For the molecule B2, binding was put at a Kd of 2.21 nM, the koff came out at 0.00129 s⁻¹ and the kon was determined as 587000 M⁻¹ s⁻¹.
In the case of B3, the Kd was less than 1 nM, the koff came out at 0.000168 s⁻¹ and the association rate constant (kon) was 536000 M⁻¹ s⁻¹.
As for B4, the Kd is 1.9 nM, the koff is 0.000992 s⁻¹ and the kon amounted to 522000 M⁻¹ s⁻¹.
The matching figures for B5: 2.84 nM, 0.00053 s⁻¹ and 187000 M⁻¹ s⁻¹.
As to B6, the Kd was less than 1 nM, the koff amounted to 1.32e-06 s⁻¹ and the association rate constant (kon) came to 405000 M⁻¹ s⁻¹.
On to B7, for which the Kd stood at 3.23 nM, the koff came out at 0.000505 s⁻¹ and the kon was found to be 156000 M⁻¹ s⁻¹.
Take B8: the dissociation constant (Kd) turned out to be 1.3 nM, the koff is 0.000587 s⁻¹ and the kon is 451000 M⁻¹ s⁻¹.
B9 registered a Kd of 16.8 nM, an off-rate constant (koff) of 0.000873 s⁻¹ and a kon of 51200 M⁻¹ s⁻¹.
The matching figures for B10: 15.5 nM, 0.00211 s⁻¹ and 136000 M⁻¹ s⁻¹.
B11 had a Kd of less than 1 nM, a koff of 0.000131 s⁻¹ and a kon of 170000 M⁻¹ s⁻¹.
In the case of B12, the affinity, expressed as Kd, was 7.15 nM; the off-rate (koff) turned out to be 0.00127 s⁻¹; the kon was determined as 177000 M⁻¹ s⁻¹.
B13 showed a Kd of 1.51 nM, a koff of 0.000642 s⁻¹ and a kon of 425000 M⁻¹ s⁻¹.
Molecule B14 gave a Kd of less than 1 nM, a koff of 0.00012 s⁻¹ and an on-rate (kon) of 238000 M⁻¹ s⁻¹.
The matching figures for B15: 1.89 nM, 0.000296 s⁻¹ and 156000 M⁻¹ s⁻¹.
